Like-named read-outs stand apart in the source and are kept apart here.
What was measured:
[1] = molecular target: T1, HCV proteins (Hepatitis C virus genotype 1b, UniProt Q9WMX2); assay: Validation by Y2H pairwise matrices; assay type: binding;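 also: yeast two-hybrid pairwise tests of interactions first found in Y2H screens of HCV bait proteins against human cDNA libraries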
T1 construct: expressed in transfected cells

[2] = molecular target: T2, HCV ORFs (Gal4-DB fusions) (Hepatitis C virus genotype 1b, UniProt Q9WMX2); assay type: binding, HCV genotype 1b, isolate con1; conditions: human protein as prey
T2 construct: expressed in transfected cells; host or cells: Saccharomyces cerevisiae MAV203 (IMAP1) / AH109 (IMAP2)

[3] = test system: HCV ORFs (Gal4-DB fusions); assay type: binding, HCV genotype 1b, isolate con1; conditions: human protein listed by gene symbol; the value names the HCV protein it interacts with
[4] = validation of interaction with HCV protein NS3
[5] = validation of interaction with HCV protein CORE
[6] = validation of interaction with HCV protein E2
[7] = interaction with HCV protein NS5B
[8] = validation of interaction with HCV protein E1
[9] = validation of interaction with HCV protein NS2
[10] = validation of interaction with HCV protein NS4A
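For IMAP Y2H IMAP1 (number of IST) in this document: yeast two-hybrid screens using HCV genotype 1b proteins fused to Gal4-DB as baits against prey cDNA libraries from human spleen and foetal brain, IMAP1 via transformation and IMAP2 via mating.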
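For IMAP Y2H IMAP2 (number of IST) in this document: yeast two-hybrid screens using HCV genotype 1b proteins fused to Gal4-DB as baits against prey cDNA libraries from human spleen and foetal brain, IMAP1 via transformation and IMAP2 via mating.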
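For Interaction with viral protein in this document: yeast two-hybrid screens using HCV genotype 1b proteins fused to Gal4-DB as baits against prey cDNA libraries from human spleen and foetal brain, IMAP1 via transformation and IMAP2 via mating.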

Row | Substance | Y2H matrices [1, 4] | IMAP Y2H IMAP1 (number of IST) ([2]; HCV protein NS3 as bait) | Interaction with viral protein [3] | also measured
1 | ITGB4 | + | 7 | NS3 | –
2 | RINT1 | + | 1 | NS3 | –
3 | MVP | + | 1 | NS3 | –
4 | MLLT4 | + | 2 | NS3 | –
5 | MEGF6 | – | – | CORE | Y2H matrices [1, 5]: +; IMAP Y2H IMAP1 (number of IST) ([2]; HCV protein CORE as bait): 1
6 | CEP63 | – | – | NS5A | IMAP Y2H IMAP2 (number of IST) ([2]; HCV protein NS5A as bait): 1
7 | ARNT | + | 1 | NS3 | –
8 | KIAA1549 | + | 1 | NS3 | –
9 | KHDRBS1 | + | 4 | NS3 | –
10 | CEP152 | + | 1 | NS3 | –
11 | VCAN | + | 1 | NS3 | –
12 | STAT3 | + | 1 | NS3 | –
13 | PDE4DIP | + | 3 | NS3 | –
14 | NELL2 | + | 11 | NS3 | –
15 | LTBP4 | + | 2 | NS3 and CORE | Y2H matrices [1, 5]: +; IMAP Y2H IMAP1 (number of IST) ([2]; HCV protein CORE as bait): 4
16 | FHL2 | – | – | NS5A | IMAP Y2H IMAP2 (number of IST) ([2]; HCV protein NS5A as bait): 1
17 | CFP | + | 4 | NS3 | –
18 | VIM | + | 32 | NS3 | –
19 | LAMC3 | + | 1 | NS3 | –
20 | ITGB1 | – | – | – | Y2H matrices [1, 6]: +; IMAP Y2H IMAP1 (number of IST) ([2]; HCV protein E2 as bait): 1
21 | ROGDI | – | – | NS3 | IMAP Y2H IMAP2 (number of IST) ([2]; HCV protein NS3 as bait): 1
22 | SETD2 | – | – | – | Y2H matrices [1, 7]: +; Y2H matrices [1, 5]: +; Y2H matrices [1, 8]: +; Y2H matrices [1, 6]: +; Y2H matrices [1, 9]: +; IMAP Y2H IMAP1 (number of IST) ([2]; HCV protein CORE as bait): 5; IMAP Y2H IMAP1 (number of IST) ([2]; HCV protein E1 as bait): 2; IMAP Y2H IMAP1 (number of IST) ([2]; HCV protein E2 as bait): 1; IMAP Y2H IMAP1 (number of IST) ([2]; HCV protein NS2 as bait): 1; IMAP Y2H IMAP1 (number of IST) ([2]; HCV protein NS5B as bait): 3

Row | Substance | Y2H matrices [1, 4] | IMAP Y2H IMAP1 (number of IST) ([2]; HCV protein NS3 as bait) | Interaction with viral protein [3] | also measured
23 | CSNK2B | + | 3 | NS3 | –
24 | SVEP1 | + | 3 | NS3 | –
25 | FLAD1 | + | 1 | NS3 | –
26 | SHARPIN | – | – | NS5A | IMAP Y2H IMAP2 (number of IST) ([2]; HCV protein NS5A as bait): 2; IMAP Y2H IMAP2 (number of IST) ([2]; HCV protein NS5B as bait): 1
27 | GAPDH | – | – | CORE | Y2H matrices [1, 5]: +; IMAP Y2H IMAP1 (number of IST) ([2]; HCV protein CORE as bait): 1
28 | APOA1 | – | – | NS3/4A and NS4B and NS2 and NS3 | –
29 | ASXL1 | + | 1 | NS5A and NS3 | –
30 | SBF1 | + | 1 | NS3 | –
31 | JUN | + | 8 | – | Y2H matrices [1, 8]: +; IMAP Y2H IMAP1 (number of IST) ([2]; HCV protein E1 as bait): 1
32 | RGNEF | + | 1 | NS3 | –
33 | SYNE1 | – | – | NS3 | IMAP Y2H IMAP2 (number of IST) ([2]; HCV protein NS3 as bait): 4
34 | RUSC2 | + | 21 | NS3 | IMAP Y2H IMAP2 (number of IST) ([2]; HCV protein NS3 as bait): 1
35 | NCAN | + | 1 | NS3 | –
36 | CADPS | – | – | NS5A | IMAP Y2H IMAP2 (number of IST) ([2]; HCV protein NS5A as bait): 1
37 | DOCK7 | – | – | NS3 | IMAP Y2H IMAP2 (number of IST) ([2]; HCV protein NS3 as bait): 2
38 | GFAP | + | 43 | NS3 | –
39 | HNRPK | – | – | – | IMAP Y2H IMAP2 (number of IST) ([2]; HCV protein CORE as bait): 14; IMAP Y2H IMAP2 (number of IST) ([2]; HCV protein NS3 as bait): 1
40 | LAMA5 | + | 1 | NS3 | –
41 | TMSB4X | – | – | – | Y2H matrices [1, 8]: +; IMAP Y2H IMAP1 (number of IST) ([2]; HCV protein E1 as bait): 1
42 | PARP4 | + | 8 | NS3 | –
43 | CEP192 | + | 1 | NS3 | –
44 | LAMB2 | + | 1 | NS3 | –

Row | Substance | Y2H matrices [1, 4] | IMAP Y2H IMAP1 (number of IST) ([2]; HCV protein NS3 as bait) | Interaction with viral protein [3] | also measured
45 | SLIT1 | + | 7 | NS3 | –
46 | SMYD3 | – | – | NS5A | Y2H matrices ([1]; interaction with HCV protein NS5A): +; IMAP Y2H IMAP1 (number of IST) ([2]; HCV protein NS5A as bait): 1
47 | CEP250 | – | – | NS5A | IMAP Y2H IMAP2 (number of IST) ([2]; HCV protein NS5A as bait): 15; IMAP Y2H IMAP2 (number of IST) ([2]; HCV protein NS5B as bait): 1
48 | GAA | + | 2 | NS3 | –
49 | CELSR2 | + | 1 | NS3 | –
50 | TRIOBP | – | – | – | IMAP Y2H IMAP2 (number of IST) ([2]; HCV protein NS5A as bait): 2
51 | COL4A2 | – | – | CORE | Y2H matrices [1, 5]: +; IMAP Y2H IMAP1 (number of IST) ([2]; HCV protein CORE as bait): 1
52 | NR4A1 | – | – | – | Y2H matrices [1, 7]: +; Y2H matrices [1, 5]: +; Y2H matrices [1, 8]: +; Y2H matrices [1, 6]: +; Y2H matrices [1, 9]: +; Y2H matrices [1, 10]: +; IMAP Y2H IMAP1 (number of IST) ([2]; HCV protein CORE as bait): 31; IMAP Y2H IMAP1 (number of IST) ([2]; HCV protein E1 as bait): 14; IMAP Y2H IMAP1 (number of IST) ([2]; HCV protein E2 as bait): 6; IMAP Y2H IMAP1 (number of IST) ([2]; HCV protein NS2 as bait): 5; IMAP Y2H IMAP1 (number of IST) ([2]; HCV protein NS4A as bait): 3; IMAP Y2H IMAP1 (number of IST) ([2]; HCV protein NS5B as bait): 8
53 | NOTCH1 | + | 2 | NS3 | –
54 | HOXD8 | – | – | – | Y2H matrices [1, 7]: +; Y2H matrices [1, 5]: +; Y2H matrices [1, 6]: +; Y2H matrices [1, 9]: +; Y2H matrices [1, 10]: +; IMAP Y2H IMAP1 (number of IST) ([2]; HCV protein CORE as bait): 1; IMAP Y2H IMAP1 (number of IST) ([2]; HCV protein E2 as bait): 1; IMAP Y2H IMAP1 (number of IST) ([2]; HCV protein NS2 as bait): 1; IMAP Y2H IMAP1 (number of IST) ([2]; HCV protein NS4A as bait): 1; IMAP Y2H IMAP1 (number of IST) ([2]; HCV protein NS5B as bait): 1
55 | FBN3 | + | 2 | NS3 | –
56 | THBS1 | – | – | NS5A | IMAP Y2H IMAP2 (number of IST) ([2]; HCV protein NS5A as bait): 7
57 | TUBB2C | – | – | – | Y2H matrices [1, 7]: +; IMAP Y2H IMAP1 (number of IST) ([2]; HCV protein NS5B as bait): 1
58 | LRRC7 | – | – | NS3 | IMAP Y2H IMAP2 (number of IST) ([2]; HCV protein NS3 as bait): 6
59 | AXIN1 | – | – | NS5A | IMAP Y2H IMAP2 (number of IST) ([2]; HCV protein NS5A as bait): 1
60 | UBQLN4 | – | – | – | Y2H matrices ([1]; interaction with HCV protein p7): +; IMAP Y2H IMAP1 (number of IST) ([2]; HCV protein p7 as bait): 3
61 | NDC80 | – | – | NS3 | IMAP Y2H IMAP2 (number of IST) ([2]; HCV protein NS3 as bait): 1
62 | PSMA6 | – | – | – | Y2H matrices [1, 6]: +; IMAP Y2H IMAP1 (number of IST) ([2]; HCV protein E2 as bait): 1
63 | CADPS2 | – | – | NS5A | IMAP Y2H IMAP2 (number of IST) ([2]; HCV protein NS5A as bait): 1
64 | OBSCN | – | 1 | NS3 | –

From US20110091994A1, “Methods for Screening Compounds for Treating and/or Preventing an Hepatitis C Virus Infection” (priority 2008, published 2011)
